This assay addresses T1, WWP2 WT (human, UniProt O00308 1-870).
T1 construct: called the ~100 kDa WWP2 protein; Unlabelled WWP2 titrated in the fluorescence anisotropy assays; also called WT WWP2; source: E. coli (BL-21 (DE3) Codon+ or BL21 Rosetta (DE3) pLysS), purified (glutathione agarose, GST removed, size exclusion)
Kind of assay: fluorescence polarisation; fluorescence anisotropy; 100 nM fluorescein-labeled WBP2, WWP2 titrated; 23 °C; quadratic binding fit. Particulars: both partners purified.

T1 sequence (O00308 whole entry): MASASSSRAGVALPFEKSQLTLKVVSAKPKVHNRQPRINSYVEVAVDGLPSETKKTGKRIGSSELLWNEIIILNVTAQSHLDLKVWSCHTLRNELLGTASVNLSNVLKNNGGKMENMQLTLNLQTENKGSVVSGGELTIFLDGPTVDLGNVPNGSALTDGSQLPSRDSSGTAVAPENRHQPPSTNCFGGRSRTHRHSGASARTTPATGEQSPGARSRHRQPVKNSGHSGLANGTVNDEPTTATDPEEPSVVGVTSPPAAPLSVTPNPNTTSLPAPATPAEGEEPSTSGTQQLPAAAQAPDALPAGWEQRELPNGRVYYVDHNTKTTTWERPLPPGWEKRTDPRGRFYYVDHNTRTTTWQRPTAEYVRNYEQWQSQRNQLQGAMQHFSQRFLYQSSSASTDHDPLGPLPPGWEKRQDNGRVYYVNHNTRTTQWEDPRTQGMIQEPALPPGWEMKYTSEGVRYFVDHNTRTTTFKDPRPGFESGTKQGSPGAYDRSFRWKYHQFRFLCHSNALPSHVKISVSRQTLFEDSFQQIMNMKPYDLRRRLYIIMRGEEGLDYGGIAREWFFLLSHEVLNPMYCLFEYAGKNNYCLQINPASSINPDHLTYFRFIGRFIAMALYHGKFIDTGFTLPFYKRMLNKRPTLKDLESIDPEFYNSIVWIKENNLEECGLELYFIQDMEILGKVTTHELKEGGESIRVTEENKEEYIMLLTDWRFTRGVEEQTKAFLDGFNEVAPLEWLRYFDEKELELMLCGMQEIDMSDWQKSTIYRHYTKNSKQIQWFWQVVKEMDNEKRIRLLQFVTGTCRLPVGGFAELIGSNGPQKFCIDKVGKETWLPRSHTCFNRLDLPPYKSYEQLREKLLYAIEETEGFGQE

B1: Fluorescein N-terminal-labeled WBP2 (aa. 149-261) (domain or fragment, human, UniProt Q969T9 149-261, looked up)
chain: PSGAYVYPPPVANGMYPCPPGYPYPPPPPEFYPGPPMMDGAMGYVQPPPPPYPGPMEPPVSGPDVPSTPAAEAKAAEAAASAYYNPGNPHNVYMPTSQPPPPPYYPPEDKKTQ
modifications: fluorescein (5/6-carboxyfluorescein, FAM) on the N-terminus
notes: WBP2, human, aa; 149-261, from pET28b-WBP2; Labelled 'with a similar procedure as that used for WWP2' (N-terminal Cys after protease cleavage), so an N-terminal Cys and loss of the tag may apply; also called FAM labeled WBP2; fluorescein-labeled WBP2; source: E. coli Rosetta pLysS, purified (Ni-NTA, Superdex 75), fluorescein labelled
Regarding B1, the Kd came out at 3.7 µM.

The record behind these values is PMC9034101, “Enzymatic analysis of WWP2 E3 ubiquitin ligase using protein microarrays identifies autophagy-related substrates” (The Journal of Biological Chemistry, 2022).
